“Also recorded” adds a separate entry of the source. No end group written: not given here.
Biological target: T1, LGR7 (RXFP1) (Homo sapiens, UniProt Q9HBX9)
T1 sequence (Q9HBX9 1-757): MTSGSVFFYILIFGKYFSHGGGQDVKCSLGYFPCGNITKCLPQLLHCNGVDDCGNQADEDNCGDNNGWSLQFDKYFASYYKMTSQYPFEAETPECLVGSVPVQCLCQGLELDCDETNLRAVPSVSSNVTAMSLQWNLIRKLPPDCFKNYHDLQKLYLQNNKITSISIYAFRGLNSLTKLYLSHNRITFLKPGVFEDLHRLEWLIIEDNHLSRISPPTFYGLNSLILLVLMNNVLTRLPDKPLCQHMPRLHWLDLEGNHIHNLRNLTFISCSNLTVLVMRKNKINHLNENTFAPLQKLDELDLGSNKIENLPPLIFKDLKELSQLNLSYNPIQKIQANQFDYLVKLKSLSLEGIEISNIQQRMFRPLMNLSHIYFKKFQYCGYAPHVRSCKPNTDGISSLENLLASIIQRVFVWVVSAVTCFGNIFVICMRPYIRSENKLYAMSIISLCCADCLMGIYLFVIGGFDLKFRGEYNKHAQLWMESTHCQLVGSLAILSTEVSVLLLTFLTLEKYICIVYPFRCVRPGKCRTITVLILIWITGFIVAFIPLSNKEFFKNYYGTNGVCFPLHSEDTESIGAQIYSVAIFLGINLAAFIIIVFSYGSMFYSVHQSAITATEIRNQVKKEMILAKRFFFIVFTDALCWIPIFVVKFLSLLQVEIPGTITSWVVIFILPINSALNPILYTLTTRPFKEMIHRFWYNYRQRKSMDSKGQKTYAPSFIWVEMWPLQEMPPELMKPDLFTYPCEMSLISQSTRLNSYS
Experiment: ACEA RT-CES cell impedance, LGR7 transfected CHO-K1 cells
Format: cell-based
Parameters: expressed in transfected cells; host or cells: CHO-K1 (transient)
Conditions: for dose response of normalized cell index: end point of the experiment, FIG. 16-19; for affinity to LGR7 compared with other ligands: from cell impedance dose response; for effect on cell impedance (normalized cell index): P74C13V 10 uM, H2 Relaxin 1 uM, FIG. 13
Text: ACEA RT-CES screen is a noninvasive and label-free assay for GPCRs that can be used with both engineered and nonengineered cell lines. The assay is based on using cell-electrode impedance to measure minute changes in cellular morphology as a result of ligand-dependent GPCR activation and is described in Naichen Yu, et al., Anal. Chem., 78 (1), 35-43, 2006. 10.1021/ac051695v S0003-2700(05)01695-1. The Rho family of small GTPases, which include Rho, Rac, and CDC42, are well-characterized effectors of oncogenes, growth factor and adhesion-mediated signaling pathways and are not classically thought of as being key effectors for GPCRs. Rho family GTPases participate in a number of cellular processes, the main one being regulation and maintenance of specific structures within the actin cytoskeleton framework. […] The current view of the actin cytoskeleton is that of a dynamic and plastic system that is a reflection and manifestation of the intracellular signaling and not simply a static structure designed to maintain cellular architecture. Since GPCRs couple to the actin cytoskeletal network and induce very defined morphological changes, it is possible to harness this information as a functional and biologically relevant readout for GPCRs.
ACEA biosciences; has designed electronic cell sensor arrays embedded in the bottom of the well of microtiter plates that are capable of measuring minute changes in cell morphology. The electronic sensors measure changes in cell-substrate impedance as a result of the disruption of the ionic environment due to the presence of cell and cell morphology dynamics. The main advantages offered by using cell-substrate impedance and cell morphology as a readout are that both exogenously expressed and endogenous receptors can be assayed without the need for engineering the cell with promiscuous G proteins and reporters or labeling the cells with dyes. In addition, since the readout is noninvasive, multiple stimulations with the same ligand or different ligands can be performed to assess events such as desensitization and receptor cross-talk. Finally, another major aspect of using cell-substrate impedance and cell morphology as a readout is that potentially all GPCRs, regardless of the signaling pathways, can be functionally monitored.
Peptides were synthesized by the solid phase peptide synthesis (SPPS) method, cleaved from the resin, and purified by RP-HPLC unless stated otherwise. The peptide's identity was verified by mass spectrometry. Final purity of peptide was >90% as measured by RP-HPLC. Peptides were diluted in Water (DDW—high purity) containing 0.1% BSA. In some cases peptides were dissolved in Tris-HCl buffer (pH8.2). In other cases either the addition of 1% DMSO or a brief sonication was required. All plates were stored at −80 C until use.
Cells: CHOk1 cell-line (ATCC CCL-61). Cells were maintained and propagated in F-12 HAM nutrient mix (Gibco. Cat# 21765-029) supplemented with 10% HI-FBS (Biological Ind. Cat#04-121-1), 2.5 mL of 200 mm L-Glutamine in Saline Solution (Biological Ind. Cat#03-020-1), 5 mL of Penicillin-Streptomycin Solution 10000/mL Penicillin G & 10 mg/mL Streptomycin Sulfate (Biological Ind. Cat#03-031-1).
One day before the transfection 2×10^6 CHO-k1 cells were plated in T75 flask containing 10 mL of complete growth medium. On the transfection date, FUGENE6 transfection reagent was warmed to ambient temperature by 15 minutes incubation at room temperature and mixed prior to use by vortex.
The transfected DNA mix was prepared in another sterile microfuge tube; Total of 2 μg plasmid DNA mixture which is composed of […] of the target GPCR plasmid and of 2 μg of pIRES plasmid carrying eGFP reporter gene.
The plasmids DNA mixture was then added to the transfection reagent tube and incubated 35 min at RT with gently tapping once every 5 minutes to mix the contents. The DNA-FuGene complex was added drop wise to flask and spread by gentle swirling. […]

For “AYAAFSV-Amide (AYAAFSV-NH2) [Peptide P59-S-Amide]”, the “dose response of normalized cell index” value was “moderate dose response for the high concentrations; also recorded: no dose response was demonstrated”.
In the case of “GQKGQVGPPGAAVRRAYAAFSV [Peptide P59C13V]”, the “dose response of normalized cell index” value is reported as “moderate dose response for the high concentrations; also recorded: mild dose dependent activation” and the “affinity to LGR7 compared with other ligands” value is reported as “significantly lower than that of H2 Relaxin or P74C13V”.
With “GQKGQVGPPGAAVRRAYAAFSVGRRAYAAFSV-OH [Peptide P74C13V]” the “effect on cell impedance (normalized cell index)” value was “stronger than the effect of H2 Relaxin”, the “dose response of normalized cell index” value was “clear dose dependent activation” and the “affinity to LGR7 compared with other ligands” value was “lower than that of H2 Relaxin”.
For “H2 Relaxin: H2 Relaxin (ACS), positive control, known ligand of LGR7 (RXFP1) [reference compound]”, the “effect on cell impedance (normalized cell index)” value was “capable of activating a cellular response” and the “dose response of normalized cell index” value was “clear dose dependent activation”.

Source: patent US8492329B2, “Bioactive peptides and methods of using same” (Compugen Ltd., priority 2007, dated 2013)
